From patent US8889621B2, “Inhibiting binding of FGF23 to the binary FGFR-Klotho complex for the treatment of hypophosphatemia” (New York University, priority 2009, dated 2014)
Entries after “also recorded” stand apart in the source; their conditions may differ.

Tests used:
NaPi-2C = NaPi-2C protein abundance in apical brush border membrane of rat kidney; assay type: in vivo; conditions: IV 0.1 μg kg body weight^−1, 3 h post injection, vs vehicle
Method: Immunoblot analysis of NaPi-2A and NaPi-2C protein abundance in renal cortex tissue and isolated brush border membrane vesicles (BBMV), and NaPi-2A immunostaining of renal tissue were performed as described (Bacic et al., “Activation of Dopamine Dl-like Receptors Induces Acute Internalization of the Renal Na^+/phosphate Cotransporter NaPi-IIa in Mouse Kidney and OK cells,” Am J Physiol Renal Physiol 288(4):F740-747 (2005), Loffing et al., “Renal Na/H Exchanger NHE-3 and Na—PO4 Cotransporter NaPi-2 Protein Expression in Glucocorticoid Excess and Deficient States,” J Am Soc Nephrol 9(9):1560-1567 (1998), Moe et al., “Dietary NaCl Modulates Na(+)-H+ Antiporter Activity in Renal Cortical Apical Membrane Vesicles,” Am J Physiol 260(1 Pt 2):F130-137 (1991), which are hereby incorporated by reference in their entirety).
For immunoblot, rat kidney cortices were dissected and homogenized, and BBMV were isolated (Loffing et al., “Renal Na/H Exchanger NHE-3 and Na—PO4 Cotransporter NaPi-2 Protein Expression in Glucocorticoid Excess and Deficient States,” J Am Soc Nephrol 9(9):1560-1567 (1998), Moe et al., “Dietary NaCl Modulates Na(+)-H+ Antiporter Activity in Renal Cortical Apical Membrane Vesicles. Am J Physiol 260(1 Pt 2):F130-137 (1991), which are hereby incorporated by reference in their entirety). […]

Sprague-Dawley rats = experiment: Plasma and urine phosphate in Sprague-Dawley rats after IV injection; assay type: in vivo, rat; conditions: IV 0.1 μg kg body weight^−1, 3 h, healthy rats
Source text: The anti-phosphaturic activity of FGF23 C-terminal peptides was examined in normal Sprague-Dawley rats and in Hyp mice, a mouse model of human X-linked hypophosphatemia (XLH) (Beck et al., “Pex/PEX Tissue Distribution and Evidence for a Deletion in the 3′ Region of the Pex Gene in X-linked Hypophosphatemic Mice,” J Clin Invest 99(6):1200-1209 (1997), Eicher et al., “Hypophosphatemia: Mouse Model for Human Familial Hypophosphatemic (Vitamin D-resistant) Rickets,” Proc Natl Acad Sci USA 73(12):4667-4671 […], Strom et al., “Pex Gene Deletions in Gy and Hyp Mice Provide Mouse Models for X-linked Hypophosphatemia,” Hum Mol Genet. 6(2):165-171 (1997), which are hereby incorporated by reference in their entirety). The animals were fed a complete, fixed formula diet containing 0.94% phosphate. Anesthetized rats (220-250 g body weight) were administered IV either FGF23^28-251 (0.1 μg kg body weight^−1) or FGF23^180-251 (0.1 μg kg body weight^−1) or vehicle. Before and 3 h after the injection, blood was drawn from the carotid artery and urine was collected through bladder catheterization. Plasma and urine chemistry of animals were analyzed using Vitros Chemistry Analyzer (Ortho-Clinical Diagnosis). 10- to 15-week old Hyp mice were fasted for 8-12 h before administering IP either FGF23^180-251 (1 mg) or FGF23^180-205 (860 μg) or vehicle. Before and 2 h, 4 h, 8 h, and 24 h after the injection, urine and serum samples were collected. Phosphate concentrations in urine and serum were determined using Phosphorus Liqui-UV Test (Stanbio Laboratory), and urine creatinine levels were measured using DetectX™ Urinary Creatinine Detection Kit (LuminosAssays).

Molecule	NaPi-2C protein expression in the apical brush border membrane (NaPi-2C)	excretion rate and fractional excretion of phosphate (Sprague-Dawley rats)	plasma phosphate (Sprague-Dawley rats)
FGF23^28-251: human FGF23 (A28 to I251), bioactive full-length ligand expressed in E. coli (protein, listed as Homo sapiens) ASPLLGSSWGGLIHLYTATARNSYHLQIHKNGHVDGAPHQTIYSALMIRSEDAGFVVITGVMSRRYLCMDFRGNIFGSHYFDPENCRFQHQTLENGYDVYHSPQYHFLVSLGRAKRAFLPGMNPPPYSQFLSRRNEIPLIHFNTPIPRRHTRSAEDDSERDPLNVLKPRARMTPAPASCSQELPSAEDNSPMASDPLGVVRGGRVNTHAGGTGPEGCRPFAKFI	diminished	increased	significant decrease; also recorded: induced hypophosphatemia
FGF23^180-251: 72-amino acid C-terminal tail of human FGF23 (S180 to I251), expressed in E. coli (protein, listed as Homo sapiens) SAEDDSERDPLNVLKPRARMTPAPASCSQELPSAEDNSPMASDPLGVVRGGRVNTHAGGTGPEGCRPFAKFI	increased	renal phosphate retention; also recorded: decreased	induced hyperphosphatemia
